The target in experiment [1] is growth hormone receptor (GHR) on GHR-expressing NIH 3T3-L1 cells (Mus musculus (Mouse)) (UniProt P16882). Kind of experiment: radioreceptor competition assay; displacement of [125I]-hGH from monolayers of GHR-expressing NIH 3T3-L1 cells.
For experiment [2], the target named is anti-hGH-(SO)10 antibodies (1:10,000 serum dilution). As to the kind of experiment: competition ELISA; hGH-(SO)10-coated plates, anti-hGH-(SO)10 serum 1:10,000, 100 ug/ml (SO)10 as competitive inhibitor. On the technique in general: In an ELISA, binding on a coated surface is turned into a signal by an enzyme label.

Square brackets hold non-standard residues; d marks the D form. Ends that are not written are not given here. Hyp = O=C(O)[C@@H]1C[C@@H](O)CN1

Chain of UniProt P16882 (P16882 25-650 limits assumed, form in doubt): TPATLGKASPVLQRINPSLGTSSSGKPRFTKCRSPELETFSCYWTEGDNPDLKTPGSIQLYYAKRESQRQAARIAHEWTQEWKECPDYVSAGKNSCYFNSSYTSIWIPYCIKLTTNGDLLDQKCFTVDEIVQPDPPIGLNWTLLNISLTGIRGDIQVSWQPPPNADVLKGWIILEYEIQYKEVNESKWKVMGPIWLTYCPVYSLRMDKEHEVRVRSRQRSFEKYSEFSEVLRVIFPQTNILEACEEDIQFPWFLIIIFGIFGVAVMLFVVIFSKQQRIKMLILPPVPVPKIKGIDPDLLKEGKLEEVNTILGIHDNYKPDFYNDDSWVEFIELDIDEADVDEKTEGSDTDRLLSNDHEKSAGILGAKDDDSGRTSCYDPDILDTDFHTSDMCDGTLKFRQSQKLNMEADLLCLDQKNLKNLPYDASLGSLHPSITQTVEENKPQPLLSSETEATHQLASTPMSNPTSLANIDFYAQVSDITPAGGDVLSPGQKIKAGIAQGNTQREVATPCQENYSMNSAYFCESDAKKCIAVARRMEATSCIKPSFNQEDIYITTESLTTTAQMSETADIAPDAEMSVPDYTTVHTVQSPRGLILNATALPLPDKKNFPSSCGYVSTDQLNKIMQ

A word on the EC50: it is the concentration at which the effect is half-maximal. As to “hGH-(SP)10-EGFP fusion glycoprotein (ligand)”, in experiment [1], the EC50 came out at 10 nM.

B1: purified (SP)10 / (SO)10 glycomodule (peptide)
peptide: S[Hyp]S[Hyp]S[Hyp]S[Hyp]S[Hyp]S[Hyp]S[Hyp]S[Hyp]S[Hyp]S[Hyp]
modifications: not fully specified
Regarding B1, in experiment [2], the percent inhibition was determined as 5%.

For the origin of these results see patent US20100028993A1.
